Measured values reported in the supplement of paper PMC12764529.
± gives the half width of the 95% confidence interval.

Experiment: folding stability dG unfold from trypsin proteolysis; higher = more stable
Procedure, shortened: (§1)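 Designed mini-proteins with no cysteine and under 80 residues were kept only if AlphaFold2 dimer inter-PAE was above 15. In a PA-tagged cDNA display construct, they were digested with trypsin and chymotrypsin and then sequenced. K50 was inferred by Bayesian fitting of counts, and unfolding free energy was derived per protease or combined against a sequence-predicted unfolded-state K50 and a shared folded-state K50.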

Sequence	folding stability dG unfold [kcal/mol]
SAGGSAKDILDQLKISDVHESNGMRTITLEMPGNNLPPDEIREIFEELGYEVEINPKNGRITFTIPSAGGSA [r15_599_TrROS]	2.09 ± 0.051
SAGGSAGGSAGGKPYIITLPNMKREVVFENSALVEFEDGSVIAAFENNVIVFFPVPEDALSAGGSAGGSAGG [r7_29_TrMRF]	0.121 ± 0.042
SAGGSAGGSSDEPLVIPVTAVFVNPETGEVTVARAEVRLPPDGGLEVDVEVEVREVEPDAPLLSAGGSAGGS [r12_116_TrMRF]	0.964 ± 0.025
SAGGSAKRVIVIGSKEERERAREAAEKENLEVVEIEGPVEEALAKLKELFPEIDEIVIVLPEEEEESAGGSA [r15_712_TrROS_Hall]	0.68 ± 0.14
SAGGSAGGSAGGMYKVTITVGGKEITIEVSEEELEELLKALEDEGYEIKEIRVEKLPEESAGGSAGGSAGGS [r10_405_TrROS_Hall]	3.91 ± 0.23
SAGGSAGGSAGGSMTTLNLTNMSPEEIEAALKANPGPVTVTTTLPGGEITTKTYTVPPGSAGGSAGGSAGGS [r10_514_JUSTAS]	-0.0189 ± 0.047
SAGMKYRIVIENENGEKIEFEKLEDGTIKMTIEKDGKKEEITIKVPPGMTIEELLKKFPNAKIVKIEKVSAG [r5_259_TrROS_Hall]	2.78 ± 0.069
SAGGSARPELVEYRVRIGDVEVRVVLPEGLEELLRRIPDVEVEPVRRFEAPPPPVVLERSELGDFASAGGSA [r15_443_TrMRF]	1.56 ± 0.051
SAISPTERVEATDYKSPNGAVGSTTTFPDPEGSTVSIVREGSTWRLVTVNPDGSVSEREVSPEEAAALLASA [r9_1144_JUSTAS]	1.89 ± 0.04
SAMIIIRVKSKEELEEAIRRLAEELGIEDATLEQIREALLRAGAKIVSIERDPEREDYVLIVIELPPEPSAG [r14_678_TrROS_Hall]	4.01 ± 0.1
SAGGSAMKLKLTFVADSPEQAEQLAEEYTRLNPELFPGEKDYPLEIEVYVLVAPPLVPPSPEELAGSAGGSA [r15_663_TrMRF]	1.23 ± 0.051
STAEELATYIAKTIQKRFPPGYRITDVRIERNPNGYVELPFTIEPPNGRPWTVEIWIDADNGEIEIEIQWSA [r9_219_TrROS]	2.47 ± 0.06
SAGGSAGGAPLMIMLEAEWKREPDPNGDKRRKVKLRVSIMTPRPDPDGKPNMHMISIPITFKVKSAGGSAGG [r6_224_TrROS]	2.87 ± 0.087
SAGGMKTVTIEYWGSLPDAVVLAKKAVEEAAKNKGKTVVTLYVWEGEPDENGVPRWKPLGKYVFVVDASAGG [r13_974_TrMRF]	2.44 ± 0.092
SAGGSAGGSAGGSAPNVKLKVEVVTVKVENAKITLPDGRTITLKPGDTVTITKVTLEPASAGGSAGGSAGGS [r4_26_TrROS_Hall]	2.32 ± 0.088
SAGGMKTVIVRVRRDSPEVRKALEALRKAKPGEEVELTVKGKKIRIVKIEEVDGEYYVTVEIEEEEESAGGS [r16_404_TrROS_Hall]	3.39 ± 0.074
SAGGGSVPAEHLVSVSYEKPPWSDEPVITVTALKGGKPVTFTIPSSLSEEEALEAVEKAIAAGPFALGSAGG [r13_225_JUSTAS]	0.638 ± 0.055
SSVTLTLTAPLPDNTTVTVEVTLTPLPEKGLVVANPTVTVTTLTPDADGNLTTSSAPATFTVVVPPELAFSA [r9_1137_TrMRF]	1.48 ± 0.061
SAGGSAGGSAGGPPDDWILMIEIVTITIEMKYKDGGKEVERKMEILVIEIAIIPPDDLPSAGGSAGGSAGGS [r10_300_TrROS]	2.21 ± 0.2
SAGGKVKVEIDPKTIKVTFYDEKGKKIGEIEIEVKPLPIVIENIPLEDIEALKEKFPDIPIIINPDNISAGG [r13_235_TrMRF]	2.47 ± 0.22
SAGTPEEVLQRAKELANRFQDRARDNGMDVKVDITQVEPNRIRINIEMRPPNGRRHRMPIEIELPKDDISAG [r5_994_TrROS]	1.27 ± 0.079

Experiment: folding stability dG unfold (combined trypsin and chymotrypsin); higher = more stable
Procedure, shortened: as §1

Sequence	folding stability dG unfold [kcal/mol]
SASLGISKIETSSLPNGTTVVTVTFSKPNLKVTLTKNPDGTITITLSPEVKKLPEEVKKLVEELAAKLSSAG [r14_555_JUSTAS]	3.95 ± 0.095
SAGGSAGGTLTIDELKELFPDVTEVKIEEKEETYTDKNGKKRKVKTKVIKVKVNGKEVTIEVKESAGGSAGG [r6_138_TrROS_Hall]	1.25 ± 0.19
SAGGSAGGSEITITLDEETGELHITVPESVKEVKIKVNGEEKTVTLKPGQTLTIPLENVEIEESAGGSAGGS [r20_26_TrROS_Hall]	1.7 ± 0.2
SAGGEPLFGGSFSAEPYRTADGRLVYIVPEVTLPNGRKARAAVIYDPSTGRPIVVLYLGDKPIVLDASAGGS [r16_766_TrMRF]	2.24 ± 0.026
SAGGSAGGAPILPEVKKIGFEKLPNGEYKVTIYVKGGKKLAEITFPPNTTIEQAVEDAIEALKSSAGGSAGG [r6_435_TrMRF]	2.28 ± 0.091
SAGGGMPTSIVLPLTVSPENVEEAIAALKAQLEAQGYTLLEVNPVKDGNTWKLRAVFRAPDGTLVTDESAGG [r13_421_JUSTAS]	3.26 ± 0.059
SAGGSMTLTFTDPSTGTTTTVTKLPNGKYVVTTTTTTSTNPEVSPTGETVGPATTTTTTVLPPAELSAGGSA [r2_195_JUSTAS]	1.86 ± 0.065
AATTATVTLPFAPDDLDAAVEAARELASTLPPDSRITVAVPAPDGSTGTVTATVHPDGTIDVTVSPAAAPAS [r1_350_TrMRF]	1.19 ± 0.1
SAGGSAGGSAGGPVLVKLSVSKPPGDKVIVTLSFYNPETKEVFTITVPLDFLKNIKPLFSAGGSAGGSAGGS [r10_1077_TrMRF]	2.83 ± 0.2
SAGGSAGGSNFRIIEFDIKLKIPVMKMEPDPDGKPKMEMQPVKIPIKVTIFVFGNGIFIMITFSAGGSAGGS [r20_58_TrROS]	5.11 ± 0.29
SEWVKVKVEIKMPFYNGNKPMPMSIEVEYEVPPNDPGMTPEDLPPEELAKEAIEKAYDYMRKLGLPPDMFSA [r9_516_TrROS]	2.74 ± 0.39
SAGGSAGGSAGGEVKILRVEEFEDGVVRVFVEGDDPVLVIELGPDGVILSIEEVDSSELSAGGSAGGSAGGS [r10_211_TrMRF]	0.781 ± 0.085
SAGGSAGGSAGKRYTFFIPVPPDEMTPEDLVDWIEKIFPDFKGKEIKVEVMPDGYVRIKIEYSAGGSAGGSA [r18_65_TrROS]	3.56 ± 0.097
SAGGSAKKLKITIVADSEEEARRLAEELARLLRELLPDGSELEVEIEVRVFRPPPPPLPSLEELLASAGGSA [r15_663_TrROS_Hall]	3.49 ± 0.18
SAGGSAGGSAGMVVKVKEHPITITKLPDGSWRLTHPASGKVILLPGVDEATAKAIAEELTSAGGSAGGSAGG [r11_1085_JUSTAS]	1.58 ± 0.054
SAGGSAGGSEKEIEVNGKKITIEKNEDGSYKLIIEVNGKKYEITLSLEELKKKNLTIEELLKKSAGGSAGGS [r20_90_TrROS_Hall]	3.26 ± 0.16
SAGGSAGGSAGGPYIRVLRSDGKPIVVPVRADDPELFDRVVAELEAAGYPVVKAEVLRLSAGGSAGGSAGGS [r10_231_TrMRF]	-0.041 ± 0.093
SAGGSGKIKEAVEAAIENPGKTVEVTVERPDGYPVKIKVDPKTGKITLEVIHPDGTTSRKEFEIKPSAGGSA [r2_263_TrMRF]	0.83 ± 0.17
SAGGSAGGSAGWRAKVYPPGNGEPIGTIEIPKDWTPSQIKEIADDLQKKFPPGWRVEIEDSAGGSAGGSAGG [r11_1081_TrROS]	1.38 ± 0.12
SAGGSATVEEIAKYFAEQHPGMEPKSVKLDYERNPEEGVYRIKVNITMRFDDNKKHKMPVEIQFPVSAGGSA [r15_266_TrROS]	0.433 ± 0.085
SAGGSAGGSMGLNVTYTVNVTHPDGTVETFPFEFDGTPEEAEEFARAIAEAHPDVKVTVTPGASAGGSAGGS [r12_268_TrMRF]	3.05 ± 0.076

Sequence	folding stability dG unfold [kcal/mol]
SAGGSAKDILDQLKISDVHESNGMRTITLEMPGNNLPPDEIREIFEELGYEVEINPKNGRITFTIPSAGGSA [r15_599_TrROS]	1.95 ± 0.039
SAGGSAGGSAGGKPYIITLPNMKREVVFENSALVEFEDGSVIAAFENNVIVFFPVPEDALSAGGSAGGSAGG [r7_29_TrMRF]	0.578 ± 0.12
SAGGSAGGSSDEPLVIPVTAVFVNPETGEVTVARAEVRLPPDGGLEVDVEVEVREVEPDAPLLSAGGSAGGS [r12_116_TrMRF]	1.2 ± 0.14
SAGGSAKRVIVIGSKEERERAREAAEKENLEVVEIEGPVEEALAKLKELFPEIDEIVIVLPEEEEESAGGSA [r15_712_TrROS_Hall]	0.899 ± 0.19
SAGGSAGGSAGGMYKVTITVGGKEITIEVSEEELEELLKALEDEGYEIKEIRVEKLPEESAGGSAGGSAGGS [r10_405_TrROS_Hall]	3.63 ± 0.11
SAGGSAGGSAGGSMTTLNLTNMSPEEIEAALKANPGPVTVTTTLPGGEITTKTYTVPPGSAGGSAGGSAGGS [r10_514_JUSTAS]	0.423 ± 0.083
SAGMKYRIVIENENGEKIEFEKLEDGTIKMTIEKDGKKEEITIKVPPGMTIEELLKKFPNAKIVKIEKVSAG [r5_259_TrROS_Hall]	3.23 ± 0.096
SAGGSARPELVEYRVRIGDVEVRVVLPEGLEELLRRIPDVEVEPVRRFEAPPPPVVLERSELGDFASAGGSA [r15_443_TrMRF]	1.71 ± 0.14
SAISPTERVEATDYKSPNGAVGSTTTFPDPEGSTVSIVREGSTWRLVTVNPDGSVSEREVSPEEAAALLASA [r9_1144_JUSTAS]	1.86 ± 0.067
SAMIIIRVKSKEELEEAIRRLAEELGIEDATLEQIREALLRAGAKIVSIERDPEREDYVLIVIELPPEPSAG [r14_678_TrROS_Hall]	4.05 ± 0.071
SAGGSAMKLKLTFVADSPEQAEQLAEEYTRLNPELFPGEKDYPLEIEVYVLVAPPLVPPSPEELAGSAGGSA [r15_663_TrMRF]	1.69 ± 0.27
STAEELATYIAKTIQKRFPPGYRITDVRIERNPNGYVELPFTIEPPNGRPWTVEIWIDADNGEIEIEIQWSA [r9_219_TrROS]	2.92 ± 0.068
SAGGSAGGAPLMIMLEAEWKREPDPNGDKRRKVKLRVSIMTPRPDPDGKPNMHMISIPITFKVKSAGGSAGG [r6_224_TrROS]	3.51 ± 0.2
SAGGMKTVTIEYWGSLPDAVVLAKKAVEEAAKNKGKTVVTLYVWEGEPDENGVPRWKPLGKYVFVVDASAGG [r13_974_TrMRF]	3.19 ± 0.1
SAGGSAGGSAGGSAPNVKLKVEVVTVKVENAKITLPDGRTITLKPGDTVTITKVTLEPASAGGSAGGSAGGS [r4_26_TrROS_Hall]	2.04 ± 0.22
SAGGMKTVIVRVRRDSPEVRKALEALRKAKPGEEVELTVKGKKIRIVKIEEVDGEYYVTVEIEEEEESAGGS [r16_404_TrROS_Hall]	3.75 ± 0.093
SAGGGSVPAEHLVSVSYEKPPWSDEPVITVTALKGGKPVTFTIPSSLSEEEALEAVEKAIAAGPFALGSAGG [r13_225_JUSTAS]	0.675 ± 0.099
SSVTLTLTAPLPDNTTVTVEVTLTPLPEKGLVVANPTVTVTTLTPDADGNLTTSSAPATFTVVVPPELAFSA [r9_1137_TrMRF]	1.86 ± 0.11
SAGGSAGGSAGGPPDDWILMIEIVTITIEMKYKDGGKEVERKMEILVIEIAIIPPDDLPSAGGSAGGSAGGS [r10_300_TrROS]	3.11 ± 0.37
SAGGKVKVEIDPKTIKVTFYDEKGKKIGEIEIEVKPLPIVIENIPLEDIEALKEKFPDIPIIINPDNISAGG [r13_235_TrMRF]	1.83 ± 0.2
SAGTPEEVLQRAKELANRFQDRARDNGMDVKVDITQVEPNRIRINIEMRPPNGRRHRMPIEIELPKDDISAG [r5_994_TrROS]	1.43 ± 0.2
